Results reported in the supplement of paper PMC9170038.

System: MS2 coat protein
Assay: apparent KD of MS2 coat protein; designed switch direction (-1 OFF switch, 1 ON switch): -1; higher = weaker reporter binding
How it was run: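 Designed RNA switches were transcribed on Illumina chips by stalled E. coli RNA polymerase and titrated with SNAP-549-labelled MS2 coat protein from 0.7 or 1.5 nM, doubling to 3 µM. Step length ran from 0.8–1.5 h at the lowest concentration to 10–20 min at the highest. The apparent KD is the median over clusters for each design, from curve-fitted normalised cluster fluorescence.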

[1] = input ligand: microRNA oligo, concentration not stated
[2] = Eterna round: R95, input ligand: FMN 200 uM
[3] = Eterna round: R95, input ligand: microRNA oligo, concentration not stated
[4] = Eterna round: R95, input ligand: none

| Sequence | apparent KD of MS2 coat protein (input ligand: FMN 200 uM) | apparent KD of MS2 coat protein (input ligand: none) | apparent KD of MS2 coat protein [1] | apparent KD of MS2 coat protein [2] | apparent KD of MS2 coat protein [3] | apparent KD of MS2 coat protein [4] |
| --- | --- | --- | --- | --- | --- | --- |
| CUACCCUCAGGAUAUUUUGCACUGUACAUGAGGAUCACCCAUGUGACGUCUGUUAAUCAAAGAGAAGGGAGAGGUG [Eternabot (L1) Solution 27] (Eterna round: R97, puzzle: Exclusion 5) | 19.7 nM | 25.1 nM | – | – | – | – |
| CUACUGAAGCUUUGCUUUAGUCGACAUGAGGAUCACCCAUGUUAGGAUAUGGUAGGCUUUGCUUACUAGAAGGAUAGAGUGAUC [salish99_ExNG3_r04_603] (Eterna round: R96, puzzle: Exclusion NG 3) | 121 nM | 54.8 nM | 55.9 nM | – | – | – |
| CUACUGAAGCUUUGCUUUAGUCGUACAUGAGGAUCACCCAUGUAGGAUAUACAUGAGGAUCACCCAUAGAAGGAUAGAGUGAUC [salish99_ExNG3_r04_602] (Eterna round: R96, puzzle: Exclusion NG 3) | 36.1 nM | 38.6 nM | 31.2 nM | – | – | – |
| CUAGAUCUUCGGAUCUAGUACAUGAGGAUCACCCAUGUUACGAGCAGAUCUUCAUACAAGCUUUUUGCUCGUCUUAU [Sensor v3 - Turn-off variant 1 - 33] (puzzle: Sensor v3, turn-off variant 1) | – | – | – | 33.4 nM | 19.5 nM | 30.7 nM |
| CUAGCGAAUGUAGGAUAUCGGACUGUUUCAGUCUGAGAAGGACAUGAGGAUCACCCAUGUGAAGCUACGUGAGUAGCACGCUAG [JL ENG1 3.86] (Eterna round: R96, puzzle: Exclusion NG 1) | 111 nM | 23.2 nM | 18.7 nM | – | – | – |
| CUAGCUUCGGCUAGUACAAGCUUUUUGCUCGUCUUAUUAACAUGAGGAUCACCCAUGUACAAGAGACCUCAUGUAUU [Sensor v3 - turn-off variant 2 - 10] (puzzle: Sensor v3, turn-off variant 2) | – | – | – | 188 nM | 14.6 nM | 249 nM |
| CUAGGGCACAAUUAAACACCCUAACAUGAGGAUCACCCAUGUCAGGAUAUGUAGGCAAAGACCCUACAGAAGGGACAUGUCCUA [Laus] (Eterna round: R96, puzzle: Exclusion NG 3) | 21.1 nM | 15.2 nM | 9.38 nM | – | – | – |
| CUAGUAUAUCAGGAUAUGAUUUUAUAUAUUGGAUCAGAAGGGAUGACAUGAGGAUCACCCAUGUUGAGGAGUGA [JR_Ex6_Sub039] (Eterna round: R97, puzzle: Exclusion 6) | 257 nM | 103 nM | – | – | – | – |
| CUAGUGUAAGGAUAUGCCUGGCCGUGAGGCCAGAUUGAAUAGCAGAAGGUACAUGAGGAUCACCCAUGUACGGG [jl-ex4-4.62 ViennaUCT mod] (Eterna round: R97, puzzle: Exclusion 4) | 279 nM | 26.4 nM | – | – | – | – |
| CUAUAAGGUGUUAGGAUAUCGGCUCGAGGUACUAGCGAGAAGGAACAUGAGGAUCACCCAUGUGGUCAUGAUUU [Eternabot (L2) Solution 60] (Eterna round: R97, puzzle: Brourd's mod of Exclusion 4) | 152 nM | 139 nM | – | – | – | – |
| CUAUUCCGAGGAUAUACAUGAGGAUCACCCAUGUCGGGCCUCCGCGUUUCGCGCCUCAGUAGAAGGCGGGUUUC [JL Riri mod 1] (puzzle: Exclusion 3) | – | – | – | – | 18.3 nM | – |
| CUCAAACAUGAGGAUCACCCAUGUGAGGAUAUGAUGCGAUCGUCGAAAGACGAUAGCAUCAGAAGGUACAAAUG [Fiskers Ex 1 - 23] (puzzle: Exclusion 1) | – | – | – | 37.7 nM | 37.9 nM | 54.2 nM |
| CUCACGUCAGGAUAUCUACAUUAAAUUGGUAACCAAGCAUGAGAGAAGGGACAUGAGGAUCACCCAUGUAAAAC [Ceisusma] (Eterna round: R97, puzzle: Exclusion 4) | 42.4 nM | 48.7 nM | – | – | – | – |
| CUCAUGUCAGGAUAUUAAGUCCGUAGCCUAUGGCUGCAACAUGAGAAGGGACAUGAGGAUCACCCAUGUCGGGA [Edceleon] (puzzle: Exclusion 4) | – | – | – | – | 34.3 nM | – |
| CUCAUGUGAGGAUAUGUGCUGAUCUGUACUGUGAUUAGAGAACAGAAGGUACAUGAGGAUCACCCAUGUACACG [Eternabot (L2) Solution 46] (Eterna round: R97, puzzle: Exclusion 4) | 354 nM | 14.7 nM | – | – | – | – |
| CUCAUUAGUCAGGAUAUCGUGUGGGUAAUUGUACGAGAAGGGACGACAUGAGGAUCACCCAUGUGGUCUUUGGG [JR_Ex6_Sub085] (Eterna round: R97, puzzle: Exclusion 6) | 70.6 nM | 165 nM | – | – | – | – |
| CUCCGGCGUGUAGGAUAUGGAUCCGAUUAGGAUCCAGAAGGACAUGAGGAUCACCCAUGUACAUGUAAACAGUCGUCACCGGGC [salish99_ExNG1_r04_206] (Eterna round: R96, puzzle: Exclusion NG 1) | 75.9 nM | 18.1 nM | 14 nM | – | – | – |
| CUCCUACAUGAGGAUCACCCAUGUCAGGAUAUCUCAGUAGCACCUAAAGGUGCUACCCAGAGAAGGGACGUGCA [Enororce] (puzzle: Exclusion 1) | – | – | – | – | 11.1 nM | – |
| CUCGCUGUGGUUAGGAUAUGUGGGUUAGCAGGCGCAUAGAAGGAACAUGAGGAUCACCCAUGUGGGUUGGUGCG [Eternabot (L2) Solution 88] (Eterna round: R97, puzzle: Brourd's mod of Exclusion 4) | 39.4 nM | 62.7 nM | – | – | – | – |
| CUCGUGCGGCUUUGCUGUGCGGGUACAUGAGGAUCACCCAUGUAGGAUAUGGUGCGCUUUGCGUGCCAGAAGGGCGUGCGUUGG [salish99_ExNG3_r04_011] (Eterna round: R96, puzzle: Exclusion NG 3) | 36.6 nM | 27.3 nM | 27.1 nM | – | – | – |
| CUCGUGUGAGGAUAUCUAUUCCACGGACGGGAGUCUUGAAGAGAGAAGGCACAUGAGGAUCACCCAUGUAAUAA [Latequ] (puzzle: Exclusion 4) | – | – | – | – | 107 nM | – |
| CUCUGUGCAAAGGAUAUGUGAACAGGUCUAAUAACAGAAGGUUGCACUUGAGGAUCACCCAAGUUAAAGGGACC [Ortebi] (Eterna round: R97, puzzle: Exclusion 6) | 517 nM | 462 nM | – | – | – | – |
| CUCUUGUCAGGAUAUCUUACAUAACAAUCGUAGUUACAAUUGGAGAAGGGACAUGAGGAUCACCCAUGUUAGCG [tap-tap-tappy34] (Eterna round: R97, puzzle: Exclusion 4) | 337 nM | 149 nM | – | – | – | – |
| CUCUUGUGAGGAUAUCGAAGAAAAGAAAAGAAAGAAAAGAACGAGAAGGCACAUGAGGAUCACCCAUGUAAGAA [EteRNA is fun!] (Eterna round: R96, puzzle: Exclusion 4) | 127 nM | 39.4 nM | 30.4 nM | – | – | – |
| CUGAACCCGGUAGGAUAUAUUGUGGGCGGGCGUGGAACGACAUGAGGAUCACCCAUGUAAUUGAGGUAGAAGGGCCGAGAGAUU [Excl-NG2-LRO15] (Eterna round: R96, puzzle: Exclusion NG 2) | 37.9 nM | 46.4 nM | 23 nM | – | – | – |
| CUGAAUAGAGGAUAUUGUACUGCUGACAUGAGGAUCACCCAUGUAUGUUAACUCGGCCGUCGAGAAGGCUAACAAA [BotMod 13 - Jieux - Exclusion 5] (Eterna round: R97, puzzle: Exclusion 5) | 16.9 nM | 41.2 nM | – | – | – | – |
| CUGAGCAGACGGAAAUCCAACAUGAGGAUCACCCAUGUCUCAAAAGCUUUUUGCUCGUCUUAUCUUCCUCUGCUCUC [Cecelein] (puzzle: Sensor v3, turn-off variant 1) | – | – | – | 12.9 nM | 16.8 nM | 11.8 nM |
| CUGAGCAGACGGAGAUCCAACAUGAGGAUCACCCAUGUCUCAAAAGCUUUCUGCUCGUCUUAUCCUCCUCUGUUCUC [Engeonrati] (puzzle: Sensor v3, turn-off variant 1) | – | – | – | 129 nM | 205 nM | 151 nM |
| CUGAGCAGACGGAGAUCCAACAUGAGGAUCACCCAUGUCUCAAAAGCUUUUUGCUCGUCUUAUCCUCCUCUGUUCAC [Esquitian 1] (Eterna round: R97, puzzle: Sensor, turn-off variant 1) | 26.4 nM | 26 nM | – | – | – | – |
| CUGAGGUAGCGGUCCUAUGACAUGAGGAUCACCCAUGUACCUUGCUACAAGCUUUUUGCUCGUCUUAUGAUUCUCGG [JL Atriat mod 8] (Eterna round: R96, puzzle: Sensor v3, turn-off variant 1) | 81.3 nM | 82.7 nM | 154 nM | – | – | – |
